Source: patent WO2009150539A2 (dated 2009)
Where “and” joins values, the source holds several entries; their conditions need not be identical. Equal values may be shown once.

T1: AahII toxin of Androctonus australis hector (Androctonus australis hector, UniProt P01484 20-83)
T1 construct: mature; also called Aahll
T1 sequence: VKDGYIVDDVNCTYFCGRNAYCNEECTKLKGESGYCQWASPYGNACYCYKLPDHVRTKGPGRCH


Assays:
[1] = biological target: AahI' toxin of Androctonus australis hector (Androctonus australis hector) (UniProt P01479); experiment: cell-based or functional assay
[2] = biological target: T1, AahII toxin of Androctonus australis …; experiment: SPR (BIAcore), AahII immobilised on CM5 chip, Nb in mobile phase
[3] = biological target: T1, AahII toxin of Androctonus australis …; experiment: cell-based or functional assay

Sequence of AahI' toxin of Androctonus australis hector (Androctonus australis hector) (P01479 20-82): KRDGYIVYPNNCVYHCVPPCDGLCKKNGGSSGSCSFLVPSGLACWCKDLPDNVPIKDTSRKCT

| Binder | surviving mice; i.c.v.; 4 LD50 AahI'; ratio 1:2 (survivors of 4 mice) [1] | Kd [2] | koff [2] | kon [2] | further results |
| --- | --- | --- | --- | --- | --- |
| AahI'A3 (VHH) VHH: QVQLQESGGGSVQAGGSLRLSCAASGFTFRSPYCMGWFRQAPGKEREAVAAIKTYYAGTVYADSMKGRFTITQDIAKNTVYLQMNSLKPEDTATYYCAATGGPYNGRCPLTSQPFPNWGQGTQVTVSS | 4 | – | – | – | – |
| AahI'B2 (VHH) VHH: QVQLQESGGGSVQAGGSLRLSCVASEYSYRRNCMAWYRQAPGKEREGVARISTAYDITYYADSANGRFTISQDKAKKTVYLQMNSLKPEDSAMYYCSVSTGSDCYSMSLPRMDYWGKGTQVTVSS | 4 | – | – | – | – |
| AahI'A17 (VHH) VHH: QVQLQESGGGSVQDGGSLTLSCAASSSYVFNNLNMGWFRQAPGKECELVSTLFVNGITNYADSVKGRFTVSRDNAKNTVFLHMTNLSTEDTAVYYCAAPDVCSATRCGPACRGQGTQVTVSS | 4 | – | – | – | – |
| AahI'D19 (VHH) VHH: QVQLQESGGGLVQPGGSLRLSCAVTDFTFSFYWMYWVRQAPGKNLEWISSLHSDGYTYYPDSVKGRFTISRDTAKNMLYLQMNSLKPEDTAVYYCATAIRNMWGQAAPGSAGYWGQGTQVTVSS | 4 | – | – | – | – |
| AahI'B23 (VHH) VHH: QVQLQESGGGSVQAGGSLRLSCAASGYQQTGYCMGWFRQAPGKEREGVAVIKTFYAGTVYADSVKGRFTISQDIAKNTVYLQMNSLQPEDTAMYYCAITGGPWNGRCPLTSQAFRYWGQGTQVTVSS | 0 | – | – | – | – |
| AahI'B1 (VHH) VHH: QVQLQESGGGSVQAGGSLRLSCTASKYTSAVGWFRQAPGKEREGVASIYGYTGSGSSGSTYYADSGKGRFTISRDSAKNMVYLQMNSLKPEDTAMYYCTAADRPRFRLLVEDDVVYWGQGTQVTVSS | 0 | – | – | – | – |
| AahI'C14 (VHH) VHH: QVQLQESGGGSVQAEGSLRLSCTVSGLTSSSNYVGWFRQAPGKEREGVATIGPYTRNTRYADSVNGRFTISLDNAKSTLYLQMNGLKPEDTAIYYCAAGKTTWIRALRSDDYKYWGQGTQVTVSS | 0 | – | – | – | – |
| AahI'A2 (VHH) VHH: QVQLQESGGGSVQAGGSLRLSCAASGFPASSYCMAWFRQAPGKEREGLAAIYNGGRRYYPDSLKGRFTIEDKAENTIYLEMNSLKPEDTATYYCAARSNQCWYATLQQSWYPYWGQGTQVTVSS | 0 | – | – | – | – |
| AahI'C13 (VHH) VHH: QVQLQESGGGSVQPGGSLRLSCAASGYIYSRYCMGWFRQAPGKEREGVAVISGYGTTHFADSAKGRFTISQDKAKNMVYLQMNSLRPEDTAIYYCAVRQWDCYSANWPQTHTYDYWGQGTQVTVSS | 2 | – | – | – | – |
| AahI'D10 (VHH) VHH: QVQLQESGGGSVQAGGSLRLSCAASVDTFSTTCMGWFRQTPGKEREGVAVIKTFYAGTVYADSVKGRFTISQDIAKNTVYLQMNSLNPEDTAMYYCAATGGPYNGRCPLASQPFRYWTQGTQVTVSS | 3 | – | – | – | – |
| AahI'D11 (VHH) VHH: QVQLQESGGGSVEAGGSLRLSCATSGFTFSRYAMYWFRQAPGMECEWVSTIHTNGDTYYANSLKGRFTGSRDNAKNTAYLQMNSLKPEDTAVYYCHAPLNDGSTPTHICSRAGSYGYWGQGTQVTVSS | 2 | – | – | – | – |
| AahI'A19 (VHH) VHH: QVQLQESGGGSVQAGGSLRLSCVASEYSECIGWFRQAPGKEREGVAAIEKVLGQRWRADSIHDRITISQDKAKNTVYLQMTSLKIDDTAMYYCAAKGRGCMSQPTTGYLSWGQGTQVTVSS | 4 | – | – | – | – |
| AahI'F12 (VHH) VHH: QVQLQESGGGSVQAGGSLRLSCVGPGISYVYNRVGWFRQAPGKESEVVAAFYTSNTSALYYAAQVKGRFTISQGNAKNTVYLQMNNLKPEDSGKYYCATANGGLLSDARGYRHYGQGTQVTVSS | 4 | – | – | – | surviving mice; i.c.v.; 20 LD50 AahI'; ratio 1:2 (survivors of 4 mice) [1]: 4; surviving mice; i.c.v.; 23 LD50 AahI'; ratio 1:2 (survivors of 4 mice) [1]: 4; surviving mice; i.c.v.; 26 LD50 AahI'; ratio 1:2 (survivors of 4 mice) [1]: 4; surviving mice; i.c.v.; 29 LD50 AahI'; ratio 1:2 (survivors of 4 mice) [1]: 4; surviving mice; i.c.v.; 33 LD50 AahI'; ratio 1:2 (survivors of 4 mice) [1]: 4; surviving mice; i.c.v.; 37 LD50 AahI'; ratio 1:2 (survivors of 4 mice) [1]: 4; surviving mice; i.c.v.; 47 LD50 AahI'; ratio 1:2 (survivors of 4 mice) [1]: 4; surviving mice; i.c.v.; 60 LD50 AahI'; ratio 1:2 (survivors of 4 mice) [1]: 4; surviving mice; i.c.v.; 70 LD50 AahI'; ratio 1:2 (survivors of 4 mice) [1]: 4; surviving mice; i.c.v.; 75 LD50 AahI'; ratio 1:2 (survivors of 4 mice) [1]: 4; surviving mice; i.c.v.; 80 LD50 AahI'; ratio 1:2 (survivors of 4 mice) [1]: 4; surviving mice; i.c.v.; 90 LD50 AahI'; ratio 1:2 (survivors of 4 mice) [1]: 4; surviving mice; i.c.v.; 95 LD50 AahI'; ratio 1:1 (survivors of 4 mice) [1]: 2; surviving mice; i.c.v.; 95 LD50 AahI'; ratio 1:2 (survivors of 4 mice) [1]: 4; surviving mice; i.c.v.; 100 LD50 AahI'; ratio 1:1 (survivors of 4 mice) [1]: 2; surviving mice; i.c.v.; 100 LD50 AahI'; ratio 1:2 (survivors of 4 mice) [1]: 4 |
| NbAahII36 (VHH, also called cluster C) VHH: QVQLVESGGGSVQAGGSLRLSCAASGYTFSNYRMGWFRQAPGKECELVSTILTDGSTNYADSVKGRFTISRDNAKNTVYLLMNNLKAEDTAVYYCAAGNSRKGYLRRCGGTDFGYWGQGTQVTVSS | – | 0.67 nM | 0.00137 s⁻¹ | 2.04e+06 M⁻¹ s⁻¹ | Survivors/Injected mice; i.c.v.; AahII:Nb 1:2; 2 LD50/mouse; 24 ng Nb/mouse [3]: 1 survivors of 4 mice; Survivors/Injected mice; i.c.v.; AahII:Nb 1:2; 3 LD50/mouse; 36 ng Nb/mouse [3]: 0 survivors of 4 mice |
| NbAahII18 (VHH, also called NbAahlllδ; NbAahll l δ) VHH: QVQLQESGGGSVQAGGSLRLSCAASGDSYSNYYMAWFRQAPGKEREGVAHINRSGRITLYADSVKGRFTMSRDNAKNTVYLQMNSLRPEDTAIYYCAAGVRTHMPPLASYGFDYWGQGTQVTVSS | – | 0.18 nM | 0.0016 s⁻¹ | 8.95e+06 M⁻¹ s⁻¹ | NC = (LD50 with Nb - LD50 without Nb)/Nb; i.c.v.; AahII:Nb 1:4 [3]: 27000 LD50/mg and 400 LD50/nmol; Survivors/Injected mice; i.c.v.; AahII:Nb 1:2; 3 LD50/mouse; 36 ng Nb/mouse [3]: 1 survivors of 4 mice; Survivors/Injected mice; i.c.v.; AahII:Nb 1:2; 4 LD50/mouse; 48 ng Nb/mouse [3]: 0 survivors of 4 mice; Survivors/Injected mice; i.c.v.; AahII:Nb 1:4; 2 LD50/mouse; 48 ng Nb/mouse [3]: 2 survivors of 4 mice; Survivors/Injected mice; i.c.v.; AahII:Nb 1:4; 3 LD50/mouse; 72 ng Nb/mouse [3]: 2 survivors of 4 mice |
| NbAahII08 (VHH, also called cluster F) VHH: DVQLVESGGGSVQAGGSLRLSCAASGDSYSNYYMAWFRQAPGKEREGVAHINRSGRITLYADSVKGRFTMSRDNAKNTVYLQMNSLKPEDTAIYYCAAGVRTHMPPLASYGFDYWGQGTQVTVSS | – | 0.12 nM | 0.00138 s⁻¹ | 1.19e+07 M⁻¹ s⁻¹ | – |
| NbAahII05 (VHH, also called cluster G) VHH: QVQLQESGGGSVQAGGSLRLSCAASGYTCTKFNMGWYRQAPGKQREFVASIRRDSTIYYGDSVKGRFTISQDNAKNMVYLQMTSLKPEDSAMYYCSTRCLTSSVPYWGQGTQVTVSS | – | 0.67 nM | 0.00186 s⁻¹ | 2.77e+06 M⁻¹ s⁻¹ | Survivors/Injected mice; i.c.v.; AahII:Nb 1:2; 2 LD50/mouse; 24 ng Nb/mouse [3]: 4 survivors of 4 mice; Survivors/Injected mice; i.c.v.; AahII:Nb 1:2; 3 LD50/mouse; 36 ng Nb/mouse [3]: 4 survivors of 4 mice; Survivors/Injected mice; i.c.v.; AahII:Nb 1:2; 4 LD50/mouse; 48 ng Nb/mouse [3]: 1 survivors of 4 mice; Survivors/Injected mice; i.c.v.; AahII:Nb 1:4; 3 LD50/mouse; 72 ng Nb/mouse [3]: 4 survivors of 4 mice |
| NbAahII20 (VHH, Purified from E. coli periplasm with His6; also called NbAahIKO (I); cluster I) VHH: QVQLQESGGGLVQPGGSLRLSCTASGFDFSRYVMSWVRQAPGKDFEWISGIMPLSSAGTTYADAVKGRFTISRDNAKNTLYLQLNNLKTEDTAIYYCAKGVYTTYIGGARGQGTQVTVSS | – | 0.26 nM | 0.00213 s⁻¹ | 8.18e+06 M⁻¹ s⁻¹ | NC = (LD50 with Nb - LD50 without Nb)/Nb; i.c.v.; AahII:Nb 1:4 [3]: 27000 LD50/mg and 400 LD50/nmol; Survivors/Injected mice; i.c.v.; AahII:Nb 1:2; 2 LD50/mouse; 24 ng Nb/mouse [3]: 3 survivors of 4 mice; Survivors/Injected mice; i.c.v.; AahII:Nb 1:2; 4 LD50/mouse; 48 ng Nb/mouse [3]: 2 survivors of 4 mice; Survivors/Injected mice; i.c.v.; AahII:Nb 1:4; 3 LD50/mouse; 72 ng Nb/mouse [3]: 2 survivors of 4 mice |
| NbAahII12 (VHH, Purified from E. coli periplasm with His6; also called cluster I) VHH: QVQLVESGGGLVQPGGSLRLSCAASGFSFNIYAMSWVRQAPGKQFEWVSGIHPNGRSTYYTDSVKGRFTISRDNAKNTLYLQLDSLKTEDTAMYYCAKGVLTKYVGGARGQGTQVTVSS | – | 0.28 nM | 0.0016 s⁻¹ | 5.63e+06 M⁻¹ s⁻¹ | NC = (LD50 with Nb - LD50 without Nb)/Nb; i.c.v.; AahII:Nb 1:4 [3]: 27000 LD50/mg and 400 LD50/nmol; Survivors/Injected mice; i.c.v.; AahII:Nb 1:4; 2 LD50/mouse; 48 ng Nb/mouse [3]: 3 survivors of 4 mice; Survivors/Injected mice; i.c.v.; AahII:Nb 1:4; 3 LD50/mouse; 72 ng Nb/mouse [3]: 2 survivors of 4 mice |
| NbAahII19 (VHH, Purified from E. coli periplasm with His6; also called cluster I) VHH: QVQLQESGGGLVQPGGSLRLSCAASGFSFNIYAMSWVRQAPGKQFEWVSGIHPDGRSTYYTDSVKGRFTISRDNAKNTLYLQLDSLKTEDTAMYYCAKGVLTKYVGSARGQGTQVTVSS | – | 2.39 nM | 0.013 s⁻¹ | 5.46e+06 M⁻¹ s⁻¹ | Survivors/Injected mice; i.c.v.; AahII:Nb 1:4; 2 LD50/mouse; 48 ng Nb/mouse [3]: 4 survivors of 4 mice; Survivors/Injected mice; i.c.v.; AahII:Nb 1:4; 3 LD50/mouse; 72 ng Nb/mouse [3]: 4 survivors of 4 mice |
| NbAahII17 (VHH, also called cluster D) VHH: DVQLVESGGGSVQAGGSLRLSCAASGVTLNNYCVGWFRQAPGKEREGVAAFKSGGSFTYYADSVKGRFTISKDNAKNTMYLQMNSLNSDDTAMYYCAVTRNSCLGLAKFRPSSYNYWGQGTQVTVSS | – | 0.61 nM | 0.00376 s⁻¹ | 6.12e+06 M⁻¹ s⁻¹ | Survivors/Injected mice; i.c.v.; AahII:Nb 1:2; 2 LD50/mouse; 24 ng Nb/mouse [3]: 0 survivors of 4 mice |
| NbAahII39 (VHH, also called cluster G) VHH: QVQLVESGGGSVQAGGSLRLSCAASGYTCTKFNMGWYRQAPGKERKMVATIRRDGTTYYADSVKGRFTISQDNAKNTVYLQMTSLKPEDSAMYYCSFRCVTPSLPYWGQGTQVTVSS | – | 0.16 nM | 0.00105 s⁻¹ | 6.41e+06 M⁻¹ s⁻¹ | – |
| NbAahII41 (VHH, also called cluster I) VHH: QVQLVESGGGSVQAGGSLRLSCAASGFDFSIYVMSWVRQAPGKGLEWISGIMPSGQTTYADAVKGRFTISRDNAKNTLYLQLNSLKTEDTAIYYCAKGVYTKYVGGARGQGTQVTVSS | – | 2.31 nM | 0.01 s⁻¹ | 4.33e+06 M⁻¹ s⁻¹ | – |
